Results from article PMC10407282, “An efficient selenium transport pathway of selenoprotein P utilizing a high-affinity ApoER2 receptor variant and being independent of selenocysteine lyase” (The Journal of Biological Chemistry, 2023).

Molecular target: T1, ^75Se-labeled selenoprotein P prepared from HepG2 cells (human (endogenous in HepG2), UniProt P49908 20-381, ^75Se label (cells cultured with ^75Se as selenite); selenocysteine residues)
T1 construct: Selenoprotein P, human, secreted by HepG2 cells that express it endogenously; single band at 69 kDa; also called ^75Se-labeled SeP; ^75Se-labeled human SeP; source: endogenous, HepG2 conditioned medium with ^75Se selenite, partially purified (Ni-NTA agarose, PD-10)
T1 sequence (looked up): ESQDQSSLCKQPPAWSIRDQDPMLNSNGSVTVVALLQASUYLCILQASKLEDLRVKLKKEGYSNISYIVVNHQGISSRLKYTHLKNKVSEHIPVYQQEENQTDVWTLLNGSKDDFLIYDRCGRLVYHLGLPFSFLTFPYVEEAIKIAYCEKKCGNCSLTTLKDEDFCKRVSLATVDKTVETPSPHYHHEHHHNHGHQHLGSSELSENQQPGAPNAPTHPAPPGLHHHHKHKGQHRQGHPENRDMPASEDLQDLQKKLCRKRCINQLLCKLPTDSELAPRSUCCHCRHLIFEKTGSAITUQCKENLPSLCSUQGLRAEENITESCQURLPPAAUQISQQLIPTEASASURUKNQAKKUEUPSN
Assay: radioligand binding; Jurkat cells (1.4 x 10^7) with serial dilution of ^75Se-labeled SeP, 1 h at 4 °C, RPMI 1640 with 0.1% BSA, 0.1% NaN3, 50 mM Hepes pH 7.4; nonspecific binding with 500-fold excess of unlabeled SeP; Scatchard analysis, n = 4
Conditions: one partner purified

B1: Apolipoprotein E receptor 2, 140-kDa variant endogenous on Jurkat cells (JΔ5,18) (receptor)
chain: AADPLLGGQGPAKDCEKDQFQCRNERCIPSVWRCDEDDDCLDHSDEDDCPKKTCADSDFTCDNGHCIHERWKCDGEEECPDGSDESEATCTKQVCPAEKLSCGPTSHKCVPASWRCDGEKDCEGGADEAGCATSLGTCRGDEFQCGDGTCVLAIKHCNQEQDCPDGSDEAGCLQGLNECLHNNGGCSHICTDLKIGFECTCPAGFQLLDQKTCGDIDECKDPDACSQICVNYKGYFKCECYPGYEMDLLTKNCKAAAGKSPSLIFTNRHEVRRIDLVKRNYSRLIPMLKNVVALDVEVATNRIYWCDLSYRKIYSAYMDKASDPKEQEVLIDEQLHSPEGLAVDWVHKHIYWTDSGNKTISVATVDGGRRRTLFSRNLSEPRAIAVDPLRGFMYWSDWGDQAKIEKSGLNGVDRQTLVSDNIEWPNGITLDLLSQRLYWVDSKLHQLSSIDFSGGNRKTLISSTDFLSHPFGIAVFEDKVFWTDLENEAIFSANRLNGLEISILAENLNNPHDIVIFHELKQPRAPDACELSVQPNGGCEYLCLPAPQISSHSPKYTCACPDTMWLGPDMKRCYRAPQSTSTTTLASTMTRTVPATTRAPGTTVHRSTYQNHSTETPSLTAAVPSSVSVPRAPSISPSTLSPATSNHSQHYANEDSKMGSTVTAAVIGIIVPIVVIALLCMSGYLIWRNWKRKNTKSMNFDNPVYRKTTEEEDEDELHIGRTAQIGHVYPARVALSLEDDGLP
modifications: highly glycosylated O-linked sugar domain
Kd: 0.67 nM
